Results published in the nanobody polyreactivity screen of Harvey et al. (2022).

Assay: yeast display, Sf9 membrane polyspecificity reagent, FACS + sequencing; frameworks hold sequencing errors
Summary of the method: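 Nanobodies from a synthetic yeast display library (Saccharomyces cerevisiae BJ5465), induced 36–48 hours with galactose, were stained 1 hour at 4 °C with 10% biotinylated, detergent-solubilized Sf9 membrane reagent, enriched on streptavidin microbeads, then FACS-sorted. Anti-HA (expression) and streptavidin (reagent binding) fluorescence set low and high (top ~1%) gates. Polyreactivity labels come from the gate of origin. Genes were colony-PCR amplified, MiSeq 2 × 250 sequenced and filtered by CDR length.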

| Sequence | polyreactivity (PSR sort gate) |
| --- | --- |
| QVQLVESGGGLVQAGGSLRLSCAASGRIFYYNAMGWYRQAPGKERELVAAITSGGSTNYADSVKGRFTISRDNAKNTVYLQMNSLNPEDTAVYYCAADYYYYVAGVHYDYWGQGTLVTVSS | low polyreactivity |
| QVQLVESGGGLVQAGGSLRLSCAASGRIFYYNAMGWYRQAPRKERELVASITGSGGSTYYADSVKGRFTISRDNAKNTVYLQMNSLKPEDSAVYYCAKREYLYRYYYVAKYDYWGQGTQVSVSS | low polyreactivity |
| QVQLVESGGGLVQAGGSLRLSCAASGRIFYYNPMGWYRQAPGKERELVAAITKSGGRTYYADSVKGRFTISRDNSKNTVYLQMYSLKPEDTAVYYCAALSRAGEYDYWGQGTQVTVSS | high polyreactivity |
| QVQLVESGGGLVQAGGSLRLSCAASGRIFYYNSMGWYREAPGKERELVAAIRSGGGSTYYADSVKGRFTISRDNAKNTVYLQMNSLKPEDTAVYYCAAEPSQRYPWSGYDYWGQGTQVTVSS | low polyreactivity |
| QVQLVESGGGLVQAGGSLRLSCAASGRIFYYNVMGWYRQAPGKEREFVAAISTRTGSTYYADSVKGRFTISRDNAKNTVYLQMNSLKPEDTAVYYCAAPYRAYSYDYWGQGTQVTVSS | high polyreactivity |
| QVQLVESGGGLVQAGGSLRLSCAASGRIFYYNVMGWYRQAPGKERELVASISYSSTRTYYADSVKGRFTISRDNAKNTVYLQMNSLKPEDTAVYYCAVDTYAYRGVSYWSERTYYYWGQGTQVTVSS | low polyreactivity |
| QVQLVESGGGLVQAGGSLRLSCAASGRIFYYYAMAWYRQAPGKERELVAAITRRGGSTYYADSVKGRFTISRDIAKNTVYFQMNSLKPEDTAVYYCAKPDRTGWLDGDYWGQGTQVTVSS | low polyreactivity |
| QVQLVESGGGLVQAGGSLRLSCAASGRIFYYYAMGRYRQAPGKERELVAAITQSGGSTYYADSVKGRFTISRDNAKNTVYLQMNSLKPEDTAVYYCNAVLSSNTKWRYPGDYWGQGTQVTVSS | low polyreactivity |
| QVQLVESGGGLVQAGGSLRLSCAASGRIFYYYAMGWYREAPGKEREFVARNRSSGGSTYADSVKGRFTISRDNAKNTVYLQMNSLKPEDTAVYYCARDGYTAVEYDYWGQGTQVTVSS | low polyreactivity |
| QVQLVESGGGLVQAGGSLRLSCAASGRIFYYYAMGWYRQAPGKEREFVAAITGRGGSTYYADSVKGRFTISRDNAKNTVYLQMNSLKPEDTAVYYCNAGQYFEYYGWYSRYGYWGQGTQVTVSS | low polyreactivity |
| QVQLVESGGGLVQAGGSLRLSCAASGRIFYYYAMGWYRQAPGKEREFVAAITGRGGSTYYADSVKGRFTISRDNEKNTVYLQMYSLKPEDTAVYYCNAGQYFEYYGWYSRYGYWGQGTQVTVSS | low polyreactivity |
| QVQLVESGGGLVQAGGSLRLSCAASGRIFYYYAMGWYRQAPGKERELVAAINRSGGSTYYADSVKGRFTISRDNAKNTVYLQMNSLKPEDTAVYYCASYDYWGQGTQVTVSS | high polyreactivity |
| QVQLVESGGGLVQAGGSLRLSCAASGRIFYYYAMGWYRQAPGKERELVAAISQRGGRTYYADSVKGRFTISRDNAKNTVYLQMYSLNQEDPAVYYCNVAGVVYPWYYYWGQGTQVTVSS | high polyreactivity |
| QVQLVESGGGLVQAGGSLRLSCAASGRIFYYYAMGWYRQAPGKERELVAGIDSGDSTNYADSVKGRFTISRDNAKNTVYLQLNSLKPEDTAVYYCAALHYGGYFSYYPYYYWGQGTQVTVSS | low polyreactivity |
| QVQLVESGGGLVQAGGSLRLSCAASGRIFYYYAMGWYRQAPGKERELVATISRAGITNYADSVKGRFTISRDNAKNTVYLQMNSLKPEDTAVYYCADTFYPWRYNYEYWGQGTQVTVSS | high polyreactivity |
| QVQLVESGGGLVQAGGSLRLSCAASGRIFYYYAMGWYRQAPGKERELVAVISRGGRTKYADSVKGRFTISRDNAKNTVYLQMNSLKPEDTAFYYCAAYPSYYGDSGLRYDYWGQGTQVPVSS | high polyreactivity |
| QVQLVESGGGLVQAGGSLRLSCAASGRIFYYYAMGWYRQAPGTERELVASINSVGTTTYADSVKGRFTISRDNAKNTVYLEMNSLKPEDTAVYYCARDTGSIYYDGYEYDYWGQGTQVTVSS | low polyreactivity |
| QVQLVESGGGLVQAGGSLRLSCAASGRIFYYYAMLWYRQAPGKERELVAAIRRGGSTNYADSVKGRFTISRDNAKNTVYLQMNSLKPEETAVYYCAARSARLEYYYWGQGTQVTVSS | high polyreactivity |
| QVQLVESGGGLVQAGGSLRLSCAASGRIFYYYGMGWYRQAPGKERELVAAISNGGRTYYADSVKGRFTISRDNAKNTVYLQMTSLKPEDTAVYYCAALTRGRGGYDYWGQGTQVTVSS | high polyreactivity |
| QVQLVESGGGLVQAGGSLRLSCAASGRIFYYYPMGWYRQAPGKEMELVARITGLTGRTYYADSVKGRFTISRDNSKNTVYLHMHSLKPQDTAVYYCAATDRWSRLGYWGQGTQVTVSS | high polyreactivity |
| QVQLVESGGGLVQAGGSLRLSCAASGRIFYYYVMGWYRQAPGKERELVATITKRGGDTYYADSVKGRFTISRDNAKNTVYLQMNSLKPEDTAVYYCAAVYLYYSRSDLYDYWGQGTQVTVSS | low polyreactivity |
| QVQLVESGGGLVQAGGSLRLSCAASGRIGAYAMGWYRQAPGKERELVAAIRWSTGSTYYADSVKGRFTISRDNAKNTVFLQMNSLKPEDTAVYYCAAEFVRRGGDFWGQGTQVTVSS | high polyreactivity |

| Sequence | polyreactivity (PSR sort gate) |
| --- | --- |
| QVQLVESGGGLVQAGGSLRLSCAASGRIGRYAMGWYRQAPGKERELVAAITWSGGSTYYADSVKGRFTISRDNAKNTVYLQMNSLKPEDTAVYYCATGRYRDQPRTGYDYWGQGTQVTVSS | high polyreactivity |
| QVQLVESGGGLVQAGGSLRLSCAASGRIHVYTMRWYRQAPGQERELVAAITWSGTSTNYADSVKGRFTLSRDNAKNTVYLKMNILKPEDTAVYYCAADISGVLSVSNVRGFDYWGQGTQVTVSS | low polyreactivity |
| QVQLVESGGGLVQAGGSLRLSCAASGRIIADNAMGWYRQAPGKERELVATISSGGSTSYADSVKGRFTLSRDNAKNTVYLQMNSLKPEDTAVYYCATPFTGPSGPYDYWGQGTQGTVSS | low polyreactivity |
| QVQLVESGGGLVQAGGSLRLSCAASGRIIALNAMGWYRQAPGKERELVAAISRRGGSTYYADSVKGRFTISRDNAKNTVYLQMNSLKPEDTAVYYCATDSVRYGYDYWGQGTQVTVSS | high polyreactivity |
| QVQLVESGGGLVQAGGSLRLSCAASGRIIARNAMGWYRQAPGKEREFVAAITARGARTYYADSVKGRFTISRDNAKNTVYLQMNSLKPEDTAVYYCAVVQGNVYYTGDDYWGQGTQVTVSS | high polyreactivity |
| QVQLVESGGGLVQAGGSLRLSCAASGRIIAVYAMGWYRQAPGKERELVATIRGGGSTNYADSVKGRFTISRDNAKNTVYLQMNSLKPEDTAVYYCAALGGRYRASTYGYWGQGTQVTVSS | high polyreactivity |
| QVQLVESGGGLVQAGGSLRLSCAASGRIIGFYAMGRYRQAPGKERELFAAINTGGGTNYADSVKGRFTISRDNAKNTVYLQMNSLKPEDTAVYYCAARTYDYRARHKVGYWGQGTQVTVSS | high polyreactivity |
| QVQLVESGGGLVQAGGSLRLSCAASGRIIGPYTMGWYRQAPGKEMEFVAAITRRGGSTYYADSVKGRFTISRDNAKNTVYLQMNSLKPEDTEVYYCAAVGQKRSLGYSWGQGTQVTVSS | low polyreactivity |
| QVQLVESGGGLVQAGGSLRLSCAASGRIIIYNAMGWYRQAPGKERQLVAAINRSGVSTHYADSVKGRFTISRDNAKNTVYLQMNSLKPEDTAVYYCARTVYGARSYDYWGQGTQVTVSS | low polyreactivity |
| QVQLVESGGGLVQAGGSLRLSCAASGRIILDYAMGWYRQAPGKERELVAAITWRGGSTNYADSVKGRFTISRDNAKNTVYLQMNSLKPEDTAVYYCNADPDDQYDYWGQGTQVTVSS | low polyreactivity |
| QVQLVESGGGLVQAGGSLRLSCAASGRIINDYTMGWYRQAPGKERELVAAITTSTGSTYADSVKGRFTISRDNAKNTVYLQMNSLKPEDTAVYYCAADSRPGKYYEDDSWGQGTQVTVSS | low polyreactivity |
| QVQLVESGGGLVQAGGSLRLSCAASGRIIQRNTMGWYRQAPGKERELVAAISGSTGRTYYADSVKGRFTISRDNAKNTVYLQMNSLKPEDTAVYYCNTVGRSSSLSVFLIGYGYWGQGTQVTVSS | high polyreactivity |
| QVQLVESGGGLVQAGGSLRLSCAASGRIIRAYAMGWYRQAPGKERELVAAISGGSNTNYADSVKGRFKISRDNAKNTVYLQMNSLKPDDTAVYYCAADAGYWESLWYPYGFYWGQGTQVSVSS | low polyreactivity |
| QVQLVESGGGLVQAGGSLRLSCAASGRIIRIYTMGWYRQARGKERELVAAITKSGGSTSYADSVKGRFTISRDNAKNTVYLQMNSLKPEDTAVYYCNAKGWTRPPGYDYWGQGTQVTVSS | high polyreactivity |
| QVQLVESGGGLVQAGGSLRLSCAASGRIIRYYVMGWYRQAPGKEREFVASISGRGASTYYADSVKGRFTISRDNAKNTVYLQMNSLKPEDTAVYYWNKESYFDTYRRYDSWGQGTQVTVSS | low polyreactivity |
| QVQLVESGGGLVQAGGSLRLSCAASGRIISSYAMGWYRQAPGKERELVAAITSSGGSTYYADSVKGRFTISRDNAKNTVYLQMNSLKPEDTAVYYCAARVFARYYTAYGVETRREEDYWGQGTQLTVSS | low polyreactivity |
| QVQLVESGGGLVQAGGSLRLSCAASGRIISVNAMGWYRQAPGKERELVAAITTRGGTPYYADSVKGRFTISRDNAKNTVSLQMNSLKPEDTAVYYCAAESSWSVYWEWAHDYWGQGTQVTVSS | low polyreactivity |
| QVQLVESGGGLVQAGGSLRLSCAASGRIITFNPMGWYRQAPGKERELVAAISSRGDGTYYADSVKGRYTISRDNAKNSFYVQMNSLKPEDTAVYYCARYPDDYYDWGYDYWGHGTQVTVSS | low polyreactivity |
| QVQLVESGGGLVQAGGSLRLSCAASGRIIWSYAMGWYRQAPGKERELVAAIRSGGTTDYADSVKGRFTISRDNAKNTVYLQMNSLKPEDTAVYYCAADPYSVYGGDYWGQGTQVTVSS | low polyreactivity |
| QVQLVESGGGLVQAGGSLRLSCAASGRIIYIYAMGWYRQAPGKERELVAAITASSGSTNYADSVKGRFTISRDNAKNTVYLQMNSLKPEDTAVYYCAAAPSRTLLRQSKYYYWGQGTQVTVSS | low polyreactivity |
| QVQLVESGGGLVQAGGSLRLSCAASGRIIYRYAMGWYRQAPGKERELVAAISYRGGSTYYADSVKGRFTISRDNAKNTVYLQMNSLKPEDTAVYYCAADRRYYDWRYGGFDYWGQGTQVTVSS | high polyreactivity |
